This is an account of results in US8795627B2, “Treatment of liver disorders by administration of RAP conjugates” (Raptor Pharmaceuticals Inc., priority 2007, dated 2014).

Bridge positions count the residues as written; N and C are the ends. * marks the point of attachment. Biotin = O=C1N[C@H]2[C@H](CS[C@H]2CCCCC(=O)*)N1 Some results are limits rather than exact numbers.

The test system of one series is hepatocellular carcinoma. The settings on record: systemic chemotherapy, HCC patients; cited from earlier work.
In series [1] the target is T1, recombinant human LRP1 cluster II (Homo sapiens, UniProt Q07954).
T1 construct: R&D Systems, amino acids 786-1165, with C-terminal Fc tag; purchased R&D Systems
T1 sequence (Q07954 805-1184): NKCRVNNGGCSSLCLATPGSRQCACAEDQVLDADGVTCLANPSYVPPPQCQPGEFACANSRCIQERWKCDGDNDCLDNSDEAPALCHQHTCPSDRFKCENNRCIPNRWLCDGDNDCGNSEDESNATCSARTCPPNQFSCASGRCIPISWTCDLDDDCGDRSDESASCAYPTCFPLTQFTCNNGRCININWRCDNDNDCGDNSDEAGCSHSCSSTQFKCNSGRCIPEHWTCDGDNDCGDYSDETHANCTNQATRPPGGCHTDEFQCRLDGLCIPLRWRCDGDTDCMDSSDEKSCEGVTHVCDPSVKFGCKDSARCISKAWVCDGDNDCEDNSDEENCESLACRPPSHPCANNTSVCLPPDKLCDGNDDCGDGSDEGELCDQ
Kind of series: Solid phase binding assay, affinity for LRP1 cluster II. The source says: (§1) Control wells contained no added inhibitor. […] Excess HRP conjugate was removed and wells washed. Color was developed using TMB reagents (BioRad, Hercules, Calif.).

For series [2] the following is noted: in vivo, iv; cited from earlier work.
Series [3] has as its target T2, LRP1-C2 (Homo sapiens, UniProt Q07954).
T2 sequence (Q07954 805-1184): T1 sequence (Q07954 805-1184)
Kind of series: Inhibition of RAP d3 binding to LRP1-C2, solid phase assay (streptavidin multimerization). Also on record: R&D Systems, amino acids 786-1165, with C-terminal Fc tag; purchased R&D Systems.
Text: as §1

The conditions of series [4]: rat, in vivo, iv; cited from earlier work.
Series [5] has as its target T2, LRP1-C2. Kind of series: Inhibition of RAP d3 binding to LRP1-C2, solid phase assay (anti-biotin antibody, preincubation with receptor). The settings on record: fit parameter of inhibition curve, 2 nM RAP d3.
Experimental: Briefly, recombinant human LRP1 cluster II (R&D Systems, amino acids 786-1165, with C-terminal Fc tag, 1 μg) was used to coat Nunc MAXISORP™ 96-well plates in TBS pH 8 supplemented with 5 mM CaCl2 (TBSC) overnight at 4° C. Wells were washed with TBSC and blocked with TBSC containing 2% BSA.
Since the ligand binding competence of CR pairs requires calcium, identical binding reactions were done in the presence of 50 mM EDTA to provide a measure of non-specific binding. Control wells contained no added inhibitor. Wells were washed with TBS supplemented with 5 mM CaCl2 and 0.05% Tween-20. Bound ligand was detected with either anti-5-peptide-HRP conjugate (Abcam) or anti-α-2-macroglobulin-HRP conjugate (Abcam). Excess HRP conjugate was removed and wells washed. Color was developed using TMB reagents (BioRad, Hercules, Calif.). Absorption at 450 nm was measured with a microplate spectrophotometer (Molecular Devices, Palo Alto).
The same procedure was performed for the controls; peptide alone, antibody alone and full-length RAP.
The subject of series [6] is LRP1-deficient CHO-K1 cells. The experiment in a line: MTT cell viability after toxin delivery, LRP1-deficient CHO-K1. The settings on record: LRP-deficient CHO-K1, 1 μM, 48 hours.
Experimental: (§2) In order to determine whether a RAP peptide conjugated to a cytotoxic agent could effectively deliver the toxin to the cell and initiate cell death, an in vitro assay was used to assess delivery of toxin via the RAP-LRP1 binding and internalization pathway.
(§3) Wild-type and LRP1-deficient CHO-K1 cells were grown in BioWhittaker Ultra-CHO supplemented with 5% fetal bovine serum. Cells were seeded in 12-well plates 48 hours prior to the experiment. […] The mixture was diluted into growth media to 100 nM and added to wells in duplicate. […] Cells were incubated for 48 hours at 37° C., 5% CO2 in a humidified chamber. Cell viability for each treatment condition was determined with an MTT assay kit (Invitrogen, San Diego).
Another series has as its system wild-type CHO-K1 cells. Kind of series: MTT cell viability after toxin delivery, wild-type CHO-K1. As to conditions: 48 hours.
For series [7] the following is noted: in vivo, iv; cited from earlier work. This is another data set of the same source.
The conditions of series [8]: in vivo.

Usually Kd stands for the constant that tells how readily two partners part at equilibrium.

Experimental for wild-type CHO-K1 cells: as §2, §3

`COc1cccc2c1C(=O)c1c(O)c3c(c(O)c1C2=O)C[C@@](O)(C(=O)CO)C[C@@H]3O[C@H]1C[C@H](N)[C@H](O)[C@H](C)O1` [adriamycin]: in the series with hepatocellular carcinoma, the response rates was 15-20%.
As to “Biotin-GGSGGCEAKIEKHNHYQKQLEIAHEKLRHAESVGDGERVSRSREKHALLEGRTKELGYTVKKHGC (disulfide 6-65 (inferred)) [mRAP-14c]”, the Kd in [1] is roughly 21 nM.
As for “Biotin-GGSGGCGKHFEAKIEKHNHYQKQLEIAHEKLRHAESVGDGERVSRSREKHALLEGRTKELGYTVKKHLQDGC (disulfide 6-72 (inferred)) [mRAP-8c]”, the Kd in series [1] is roughly 4 nM.
As for “RAP: mature full-length receptor-associated protein, 323 amino acids (SEQ ID NO: 1); Tables 3 and 4, b198”, the toxicity result in [2] is given as “no measurable toxicity”. Moreover, in the series with LRP1-C2 [3], the “fold better EC50 than peptide assembled on streptavidin” value is listed as “about 10 fold”. Moreover, the Maximum binding in the series with LRP1-C2 [3] (fit parameter of inhibition curve, 2 nM RAP d3) is 0.29. Moreover, in [4], the “accumulation in heart, brain, muscle or kidney” value is < 1 % of injected dose and the circulating half-life entry is given as “less than a minute”. Besides, the Maximum binding with LRP1-C2 [5] is given as 0.74.
As to Saporin [reference compound], the “loss of viable cells” value was roughly 35% in [6] and “about 55%” with wild-type CHO-K1 cells (wild-type CHO-K1, 1 μM).
As for “biotin-GGSGGCGFREELKHFEAKIEKHNHYQKQLEIAHEKLRHAESVGDGERVSRS REKHALLEGRTKELGYTVKKHLQDLSGGC [mini-RAPc]”, in the series on wild-type CHO-K1 cells (100 nM, cell type not specified (wild-type and LRP1-deficient CHO-K1 tested)), the “effect on cell survival” value is “no significant effect on cell survival”.
Turning to “streptavidin: streptavidin alone, control (35S-labeled in bio-distribution studies) [reference compound]”, the tissue accumulation entry in [7] is on record as “accumulate in kidney, but not significantly in liver”. Besides, the “inhibitory effect on RAP d3 binding” value with LRP1-C2 [3] (in words) is “no inhibitory effect”. Moreover, in series [8], the “uptake in the woodchuck liver, mean” value is reported as 435 PSL/mm^2.
